Source: paper doi:10.1101/2021.02.09.430442 (bioRxiv, 2021)

Experiments:
Recombinant human Vti1a = molecular target: T1, Recombinant human Vti1a (human, UniProt Q96AJ9 1-217); test: pull-down
T1 sequence (looked up): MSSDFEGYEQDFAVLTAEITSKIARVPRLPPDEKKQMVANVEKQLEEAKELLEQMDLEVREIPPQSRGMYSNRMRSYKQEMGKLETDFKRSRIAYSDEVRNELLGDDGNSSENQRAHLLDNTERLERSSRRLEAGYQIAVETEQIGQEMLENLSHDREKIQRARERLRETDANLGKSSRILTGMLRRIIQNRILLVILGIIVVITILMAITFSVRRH

[1] = molecular target: T2, Recombinant human Syntaxin6 (human, UniProt O43752 1-255); test: pull-down
T2 sequence: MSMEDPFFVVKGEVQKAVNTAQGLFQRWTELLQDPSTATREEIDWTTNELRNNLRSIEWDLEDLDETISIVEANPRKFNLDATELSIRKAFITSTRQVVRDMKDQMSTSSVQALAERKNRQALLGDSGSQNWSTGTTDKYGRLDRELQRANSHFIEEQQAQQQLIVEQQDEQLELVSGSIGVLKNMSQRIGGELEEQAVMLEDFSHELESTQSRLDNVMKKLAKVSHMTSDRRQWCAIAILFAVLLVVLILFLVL

binding result (Recombinant human Vti1a): binds | binding result [1]: binds
B1: GST-VAMP4 (natural protein, human, UniProt O75379 1-141, looked up)
chain: MPPKFKRHLNDDDVTGSVKSERRNLLEDDSDEEEDFFLRGPSGPRFGPRNDKIKHVQNQVDEVIDVMQENITKVIERGERLDELQDKSESLSDNATAFSNRSKQLRRQMWWRGCKIKAIMALVAAILLLVIIILIVMKYRT
